Results on ten molecules are retold here after US20240034796A1 (GENUV, published 2024).

First the molecules themselves.
B1: AHF16556 (antibody, V domains shown)
VH: QVQLVQSGAEVKKPGASVKVSCKASGYTFTGYWMHWVRQAPGQGLEWIGMIHPNSDTTVYNWKFKNRVTMTRDTSISTAYMELSRLRSDDTAVYYCAGTDQEAWAAFWGQGTTVTVSS
VL: DIVMTQTPLSLSVTPGQPASISCRSSQNIVRSQGDTYLEWYLQKPGQSPQLLIYKVSKRFSGVPDRFSGSGSGTDFTLKISRVEAEDVGVYYCFQGSHVPWTFGGGTKVEIK
B2: AHF16559 (antibody, V domains shown)
VH: B1 VH with W62E, E102A, A105H
VL: B1 VL with R31H
B3: AHF16558 (antibody, V domains shown)
VH: B1 VH with V59T, W62E, A105H
VL: B1 VL
B4: AHF16564 (antibody, V domains shown)
VH: B1 VH with V59T, W62E, A106G
VL: B1 VL
B5: AHF16566 (antibody, V domains shown)
VH: B1 VH with E102A
VL: B1 VL with R31H
B6: AHF16561 (antibody, V domains shown)
VH: B1 VH with V59I, W62E, E102A, A106G
VL: B1 VL
B7: AHF16563 (antibody, V domains shown)
VH: B1 VH with A105M, A106G
VL: B1 VL with R31H
B8: AHF16557 (antibody, V domains shown)
VH: B1 VH with E102A, A106G
VL: B1 VL with R31H
B9: AHF16560 (antibody, V domains shown)
VH: B1 VH with V59I, W62E, A105H, A106G
VL: B1 VL
B10: AHF16565 (antibody, V domains shown)
VH: B1 VH with A105H, A106G
VL: B1 VL

Numbering of substitutions follows the chain as printed.

T1 sequence (Q15116 25-167 limits assumed): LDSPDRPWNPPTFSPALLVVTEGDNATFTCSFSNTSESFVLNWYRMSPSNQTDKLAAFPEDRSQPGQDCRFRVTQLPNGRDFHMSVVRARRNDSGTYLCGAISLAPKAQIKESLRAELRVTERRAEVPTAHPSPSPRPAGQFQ

One assay has as its target T1, human PD-1 protein (human, UniProt Q15116 25-167, limits assumed).
T1 construct: also called human PD-1 antigen
Description: SPR; ratio against the U299-WT parent. In general terms: Surface plasmon resonance follows binding to a sensor surface in real time, without labels.
As for B1, the “Ratio (kD)” value is 5.27 and the “Ratio (kd)” value was determined as 6.45.

With B2, the “Ratio (kD)” value amounted to 6.06 and the “Ratio (kd)” value was 5.34.

For B3, the “Ratio (kD)” value turned out to be 7.26 and the “Ratio (kd)” value is 5.29.

Regarding B4, the “Ratio (kD)” value is 14.1 and the “Ratio (kd)” value is 11.1.

Consider B5, for which the “Ratio (kD)” value was 6.45 and the “Ratio (kd)” value is 5.41.

Turning to B6, the “Ratio (kD)” value was 7.45 and the “Ratio (kd)” value was found to be 7.36.

B7: the “Ratio (kD)” value is 13.6 and the “Ratio (kd)” value came out at 11.3.

For B8, the “Ratio (kD)” value turned out to be 5.29 and the “Ratio (kd)” value came to 4.69.

For B9, the “Ratio (kD)” value worked out at 6.8 and the “Ratio (kd)” value is 6.04.

Regarding B10, the “Ratio (kD)” value amounted to 2.46 and the “Ratio (kd)” value turned out to be 3.45.

For the next assay, the target named is T1, human PD-1 protein. Briefly: SPR, binding kinetics to human PD-1.
Broadly, the Kd is a measure of binding affinity in units of concentration. A high value points to a looser complex. What is called koff is the first-order rate constant of dissociation. A word on the kon: it is a measure of how fast the partners come together. High values mean fast association, low ones slow association. For B1, binding was characterised by a dissociation constant (Kd) of 0.427 nM, the koff worked out at 6.31e-05 s⁻¹ and the kon worked out at 148000 M⁻¹ s⁻¹.

Consider B2, for which the dissociation constant (Kd) was 0.371 nM, the dissociation rate constant (koff) was 7.62e-05 s⁻¹ and the kon worked out at 206000 M⁻¹ s⁻¹.

B3 returned a dissociation constant (Kd) of 0.31 nM, a koff of 7.69e-05 s⁻¹ and a kon of 248000 M⁻¹ s⁻¹.

In the case of B4, binding was characterised by a dissociation constant (Kd) of 0.16 nM, the off-rate (koff) came out at 3.68e-05 s⁻¹ and the kon is 230000 M⁻¹ s⁻¹.

For the molecule B5, the Kd was found to be 0.349 nM, the dissociation rate constant (koff) was 7.53e-05 s⁻¹ and the kon came to 215000 M⁻¹ s⁻¹.

With B6, the dissociation constant Kd turned out to be 0.302 nM, the koff was 5.53e-05 s⁻¹ and the kon was found to be 183000 M⁻¹ s⁻¹.

Take B7: the affinity, expressed as Kd, was 0.165 nM; the koff turned out to be 3.6e-05 s⁻¹; the kon is 218000 M⁻¹ s⁻¹.

Regarding B8, the Kd turned out to be 0.425 nM, the koff came to 8.68e-05 s⁻¹ and the kon was 204000 M⁻¹ s⁻¹.

B9: the affinity, expressed as Kd, was 0.331 nM; the off-rate constant (koff) came out at 6.74e-05 s⁻¹; the kon was determined as 204000 M⁻¹ s⁻¹.

In the case of B10, binding was characterised by a dissociation constant (Kd) of 0.913 nM, the koff is 0.000118 s⁻¹ and the kon was found to be 130000 M⁻¹ s⁻¹.
